Data from patent CN116478288A (ZHEJIANG BLUE SHIELD PHARMA CO LTD, dated 2023).
Residue numbers refer to the chain shown, from its start.

B1: 人源化抗体ID 5 (antibody, human IgG4 S228P, kappa)
heavy: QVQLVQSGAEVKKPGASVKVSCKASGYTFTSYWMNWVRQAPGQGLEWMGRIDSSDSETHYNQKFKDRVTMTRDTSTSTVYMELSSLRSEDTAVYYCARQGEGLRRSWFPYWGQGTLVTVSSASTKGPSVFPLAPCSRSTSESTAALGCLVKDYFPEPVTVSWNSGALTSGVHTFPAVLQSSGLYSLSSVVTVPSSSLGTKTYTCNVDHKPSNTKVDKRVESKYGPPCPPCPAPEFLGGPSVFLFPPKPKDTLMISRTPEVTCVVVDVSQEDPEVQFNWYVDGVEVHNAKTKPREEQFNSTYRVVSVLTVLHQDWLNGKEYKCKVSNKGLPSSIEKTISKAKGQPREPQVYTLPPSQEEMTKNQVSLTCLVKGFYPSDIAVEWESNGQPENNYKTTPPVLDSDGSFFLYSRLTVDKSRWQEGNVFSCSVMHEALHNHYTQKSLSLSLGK
light: DIVMTQSPDSLAVSLGERATINCRASKSVSTSGYSYIHWYQQKPGQPPKLLIYVASNLQSGVPDRFSGSGSGTDFTLTISSVQAEDVAVYYCQHIRELPWTFGQGTKVEIKRTVAAPSVFIFPPSDEQLKSGTASVVCLLNNFYPREAKVQWKVDNALQSGNSQESVTEQDSKDSTYSLSSTLTLSKADYEKHKVYACEVTHQGLSSPVTKSFNRGEC
notes: Humanized, human IgG4; also called VH1+VL2
B2: 人源化抗体ID 2 (antibody, human IgG4 S228P, kappa)
heavy: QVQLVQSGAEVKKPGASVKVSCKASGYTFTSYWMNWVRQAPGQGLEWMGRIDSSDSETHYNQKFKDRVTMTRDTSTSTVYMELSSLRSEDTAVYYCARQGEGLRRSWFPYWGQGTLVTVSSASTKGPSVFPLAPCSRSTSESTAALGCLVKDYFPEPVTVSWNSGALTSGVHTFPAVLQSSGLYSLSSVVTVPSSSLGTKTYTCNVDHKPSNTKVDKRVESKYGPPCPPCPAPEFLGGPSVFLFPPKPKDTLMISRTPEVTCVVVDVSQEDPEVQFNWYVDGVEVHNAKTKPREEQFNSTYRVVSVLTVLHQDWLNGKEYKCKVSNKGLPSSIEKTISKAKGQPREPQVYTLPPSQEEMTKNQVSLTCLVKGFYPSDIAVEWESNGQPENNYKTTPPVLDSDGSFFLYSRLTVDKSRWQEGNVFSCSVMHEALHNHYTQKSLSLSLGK
light: B1 light with V108L
notes: Humanized, human IgG4 constant region and human light chain constant region, expressed in 293F cells; also called VH1+VL3
B3: 人源化抗体ID 4 (antibody, human IgG4 S228P, kappa, V domains shown)
VH: QVQLVQSGAEVKKPGASVKVSCKASGYTFTSYWMNWVRQAPGQGLEWMGRIDSSDSETHYNQKFKDRVTMTRDTSTSTVYMELSSLRSEDTAVYYCARQGEGLRRSWFPYWGQGTLVTVSS
VL: DIVMTQSPDSLAVSLGERATINCRASKSVSTSGYSYIHWYQQKPGQPPKLLIYVASNLQSGVPDRFSGSGSGTDFTLTISSLQAEDVAVYYCQHIRELPWTFGQGTKVEIKR
notes: Humanized, human IgG4; also called VH1+VL1
B4: 嵌合抗体ID 3 (antibody, human IgG4 S228P, kappa, V domains shown)
VH: QVQLQQPGAELVKPGAPVKLSCKASGYTFTSYWMNWVKQRPGRGLEWIGRIDSSDSETHYNQKFKDKATLTVDKSSSTAYIQLSSLTSEDSAVYYCARQGEGLRRSWFPYWGQGTLVIVSA
VL: DIVLTQSPASLAVSLGQRATISCRASKSVSTSGYSYIHWYQQKPGQPPKLLIYVASNLQSGVPARFSGSGSGTDFTLNIHPVEEEDAATYYCQHIRELPWTFGGGTKLEIKR

Molecular target: T1, (融合小鼠Fc的)CD47 (human, UniProt Q08722 19-139, limits assumed)
T1 construct: also called CD47-mFC; not shown: mouse Fc
T1 sequence (Q08722 19-139 limits assumed): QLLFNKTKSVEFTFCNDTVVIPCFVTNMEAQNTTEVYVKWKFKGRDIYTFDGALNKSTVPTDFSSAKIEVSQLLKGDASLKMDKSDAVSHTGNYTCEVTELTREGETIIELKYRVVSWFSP
Assay: SPR Biacore 8K, antibody on CM5 chip, CD47-mFc as analyte, 1:1 fit, 25 C

Binder	Kd [nM]	koff [s⁻¹]	kon [M⁻¹ s⁻¹]
B1	0.623	0.000303	486000
B2	0.623	0.000283	454000
B3	0.79	0.00038	482000
B4	0.668	0.000265	397000
